Source: patent publication US20170189489A1, “CARDIAC MUSCLE FUNCTION AND MANIPULATION” (Zensun (Shanghai) Science & Technology, Co., Ltd., priority 1998, published 2017)
“Also recorded” adds a separate entry of the source.

Legend:
[1] = test system: p42/p44 MAP kinases; assay: p42/p44 MAP kinase phosphorylation in embryonic cardiomyocytes (immunoblot); type: cell-based, mouse
Procedure: (§1) Mouse embryos (E11.5-12.5) were used to prepare primary cardiac myocytes. Heart tissue was isolated aseptically from embryos. Myocardial cells were isolated by collagenase digestion and separated from non cardiomyocytes by preattachments on culture dishes that was performed three times. Cells were then cultured as described previously. Using this method, it was routinely possible to obtain primary cultures with >90% myocytes.
(§2) Embryonic myocardial cells were cultured in serum-free medium for at least 24 hrs and then stimulated with rhNRGβ2 or IGF-I for various times. Stimulation was terminated by washing cells rapidly with cold PBS. To block the MAP kinase activation, the MEK inhibitor, PD98059, was added to the medium 30 mins prior to the administration of rhNRGβ2 or IGF-I. Cells were then harvested as previously described for Western blot analysis with HRPO-conjugated monoclonal antibody RC20H (1:2,000) for detection of phosphorylated ErbB receptors, or a phospho-specific p42/p44 MAP kinase antibody (dilution ratio 1:1,000) for detection of phosphorylated MAP kinases. The same amount of cell extract protein was loaded into each lane and separated by SDS-PAGE. Immunobloting with an anti-ErbB receptor or anti-p42/44 MAP kinase antibodies was also used to normalise for protein loading. MAP-kinase (p42/p44) activity was measured using a p42/44 MAP kinase enzyme assay kit (RPN84; Amersham, Bucks, U.K.) according to the manufacturer's instructions.

[2] = test system: p21^CIP1; assay: p21^CIP1 protein expression in embryonic cardiac muscle cells (immunoblot); type: cell-based, mouse
Procedure: as §1
Embryonic myocardial cells cultured in serum-free or 5% FBS medium were stimulated with various concentrations of rhNRGβ2 with or without the MEK inhibitor, PD98059, for 24 or 48 hrs, harvested as described above and subjected to immunoblot analysis using an anti-p21^CIP1 antibody (1:100). The same amount of protein was loaded into each well of a SDS polyacrylamide gel. After immunoblotting, the membrane was stripped and probed further with an antibody to the ErbB2 receptor for normalisation of protein loading.

[3] = test system: E12.5 mouse cardiac muscle cells; assay: Sarcomeric and cytoskeletal structure of embryonic mouse cardiac muscle cells (phalloidin and anti-α-actinin staining); type: cell-based; details: for sarcomeric actin reorganisation and contractile unit assembly: 48 hrs, serum-free
Procedure: as §1
(§3) Myocardial cells were plated in 2-well Novex plates (Nunc), and cultured with or without rhNRGβ2 in serum-free DMEM medium for 24-48 hour. After rinsing the cells with PBS, they were fixed with 4% paraformaldehyde and 0.1% Triton X-100 at room temperature for 30 minutes. The fixed cells were then blocked with 5% skim milk in PBS for 1 hr, followed by incubation with an anti-α-actinin monoclonal antibody (Sigma), for 45 minutes at room temperature. After washing, anti-mouse IgG conjugated with FITC (Sigma) was added and the cells were incubated for another half hour. For phalloidin staining, cells were fixed with 4% formadehyde for 1 hr, washed, and stained with phalloidin buffer (100 μl PBS, 10 μl rhodarmine phalloidin (6.6 μM in MeOH)) for 1 hr. After PBS washing, cells were mounted with 1% p-phenylenediamine (1 mg/ml, Sigma) in glycerol, and then covered and sealed. Cells were examined using a UV fluorescent microscope and photographed with a 40× power objective.

[4] = test system: neonatal rat cardiac muscle cells; assay: Sarcomeric and cytoskeleton structures and MHC-α expression of cultured neonatal rat cardiac muscle cells; type: cell-based; details: for sarcomeric and cytoskeleton structures, cell-cell adhesions: single agent, Phalloidin and anti-α-actinin staining
Procedure: By using primary cultured myocardial cells as a model system, the present inventor evaluated neuregulin signalling in cardiac myocyte differentiation, maturation and assembly or maintenance of sarcomeric and cytoskeleton structures. To assay the neuregulin effect on cell signalling, embryonic cardiac muscle cells were incubated with recombinantly purified human neuregulin ligand (rhNRGβ2). […] Such an effect was not found from the cells stimulated with either insulin IGF-1 or PE. […] These findings indicate that NRG function through two distinct pathways: one activated at lower ligand concentrations results in cardiomyocyte growth, whereas the other, activated with higher concentrations, is mediated by sustained activation of the MAP kinase pathway and results in terminal differentiation and maturation.
as §3

[5] = test system: ventricular muscle cells; details: cited from earlier work; for hypertrophy score (maximal increase in cell size): scale 7 to 0, 3 = non-stimulated cells, 7 = fully hypertrophied
[6] = test system: embryonic mouse cardiomyocytes; assay: DNA synthesis ([3H] thymidine incorporation) in cultured embryonic mouse cardiomyocytes; type: cell-based; details: for effect on IGF-I (10^−9M)-stimulated DNA synthesis: 20 hrs
Procedure: as §1
Embryonic myocardial cells were cultured with rhNRGβ2 or IGF-I containing serum-free DMEM for 20 hrs. [methyl-^3H] Thymidine (0.5 μCi/well) was added and cells were then cultured for a further 12 hrs. After rinsing twice with cold PBS, once with ice-cold 10% trichloroacetic acid, and then five times with ice-cold PBS, the cells were dissolved in 100 μl of 1% SDS, and counted in a liquid scintillation counter.
(§4) All of the above assays were repeated at least three times for each experiments. Data for DNA synthesis and MAP kinase activity are presented as the mean±S.E of five replicate samples. Statistical significance was determined by ANOVA using the SAS statistical package with P<0.05 being considered significant. Immunoblots were quantitated by densitometry analysis with the intensity of the evaluated protein bands being shown below the blots as the fold changes over control (see FIGs).

[7] = biological target: T1, ErbB2 and ErbB4 receptors (Mus musculus, UniProt Q61527); assay: ErbB receptor phosphorylation in embryonic cardiomyocytes (Western blot / immunoprecipitation); type: cell-based
T1 construct: ErbB2 and ErbB4 are most abundantly expressed in cardiac myocytes; endogenous in cells; host or cells: primary embryonic (E11.5-12.5) mouse cardiac myocytes
T1 sequence (Q61527 26-1308): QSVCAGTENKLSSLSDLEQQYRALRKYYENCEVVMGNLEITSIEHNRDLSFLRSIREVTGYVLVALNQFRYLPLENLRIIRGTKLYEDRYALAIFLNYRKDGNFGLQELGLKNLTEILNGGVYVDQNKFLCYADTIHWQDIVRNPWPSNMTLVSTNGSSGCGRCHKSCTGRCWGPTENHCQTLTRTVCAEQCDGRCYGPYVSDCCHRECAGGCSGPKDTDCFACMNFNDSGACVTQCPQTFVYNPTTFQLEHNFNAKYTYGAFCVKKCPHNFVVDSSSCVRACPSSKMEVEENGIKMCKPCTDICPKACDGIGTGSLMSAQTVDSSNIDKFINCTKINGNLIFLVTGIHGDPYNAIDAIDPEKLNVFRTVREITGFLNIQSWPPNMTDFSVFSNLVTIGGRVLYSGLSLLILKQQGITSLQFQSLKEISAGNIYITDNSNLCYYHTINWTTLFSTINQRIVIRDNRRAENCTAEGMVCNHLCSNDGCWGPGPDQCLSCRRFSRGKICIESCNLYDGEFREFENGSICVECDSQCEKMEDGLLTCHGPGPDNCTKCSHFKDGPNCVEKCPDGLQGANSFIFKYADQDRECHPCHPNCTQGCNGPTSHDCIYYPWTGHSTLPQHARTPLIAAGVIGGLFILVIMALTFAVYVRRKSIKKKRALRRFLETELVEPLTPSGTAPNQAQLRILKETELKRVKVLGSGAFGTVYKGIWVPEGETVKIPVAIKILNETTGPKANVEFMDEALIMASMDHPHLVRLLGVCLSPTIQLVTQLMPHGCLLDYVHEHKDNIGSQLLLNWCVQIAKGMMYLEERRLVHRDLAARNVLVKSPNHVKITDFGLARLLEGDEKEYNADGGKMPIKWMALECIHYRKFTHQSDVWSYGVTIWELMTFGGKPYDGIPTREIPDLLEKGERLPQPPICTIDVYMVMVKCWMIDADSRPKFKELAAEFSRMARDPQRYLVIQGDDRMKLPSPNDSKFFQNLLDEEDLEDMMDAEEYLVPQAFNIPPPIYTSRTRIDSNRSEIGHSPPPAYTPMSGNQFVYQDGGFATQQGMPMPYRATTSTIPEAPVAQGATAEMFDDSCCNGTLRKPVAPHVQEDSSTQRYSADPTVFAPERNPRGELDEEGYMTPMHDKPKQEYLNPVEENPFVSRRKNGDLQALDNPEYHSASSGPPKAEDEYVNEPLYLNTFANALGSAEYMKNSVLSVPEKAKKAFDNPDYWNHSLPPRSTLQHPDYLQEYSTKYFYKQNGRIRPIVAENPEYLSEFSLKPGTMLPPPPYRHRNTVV
T1 sequence (P70424 23-1256 partner): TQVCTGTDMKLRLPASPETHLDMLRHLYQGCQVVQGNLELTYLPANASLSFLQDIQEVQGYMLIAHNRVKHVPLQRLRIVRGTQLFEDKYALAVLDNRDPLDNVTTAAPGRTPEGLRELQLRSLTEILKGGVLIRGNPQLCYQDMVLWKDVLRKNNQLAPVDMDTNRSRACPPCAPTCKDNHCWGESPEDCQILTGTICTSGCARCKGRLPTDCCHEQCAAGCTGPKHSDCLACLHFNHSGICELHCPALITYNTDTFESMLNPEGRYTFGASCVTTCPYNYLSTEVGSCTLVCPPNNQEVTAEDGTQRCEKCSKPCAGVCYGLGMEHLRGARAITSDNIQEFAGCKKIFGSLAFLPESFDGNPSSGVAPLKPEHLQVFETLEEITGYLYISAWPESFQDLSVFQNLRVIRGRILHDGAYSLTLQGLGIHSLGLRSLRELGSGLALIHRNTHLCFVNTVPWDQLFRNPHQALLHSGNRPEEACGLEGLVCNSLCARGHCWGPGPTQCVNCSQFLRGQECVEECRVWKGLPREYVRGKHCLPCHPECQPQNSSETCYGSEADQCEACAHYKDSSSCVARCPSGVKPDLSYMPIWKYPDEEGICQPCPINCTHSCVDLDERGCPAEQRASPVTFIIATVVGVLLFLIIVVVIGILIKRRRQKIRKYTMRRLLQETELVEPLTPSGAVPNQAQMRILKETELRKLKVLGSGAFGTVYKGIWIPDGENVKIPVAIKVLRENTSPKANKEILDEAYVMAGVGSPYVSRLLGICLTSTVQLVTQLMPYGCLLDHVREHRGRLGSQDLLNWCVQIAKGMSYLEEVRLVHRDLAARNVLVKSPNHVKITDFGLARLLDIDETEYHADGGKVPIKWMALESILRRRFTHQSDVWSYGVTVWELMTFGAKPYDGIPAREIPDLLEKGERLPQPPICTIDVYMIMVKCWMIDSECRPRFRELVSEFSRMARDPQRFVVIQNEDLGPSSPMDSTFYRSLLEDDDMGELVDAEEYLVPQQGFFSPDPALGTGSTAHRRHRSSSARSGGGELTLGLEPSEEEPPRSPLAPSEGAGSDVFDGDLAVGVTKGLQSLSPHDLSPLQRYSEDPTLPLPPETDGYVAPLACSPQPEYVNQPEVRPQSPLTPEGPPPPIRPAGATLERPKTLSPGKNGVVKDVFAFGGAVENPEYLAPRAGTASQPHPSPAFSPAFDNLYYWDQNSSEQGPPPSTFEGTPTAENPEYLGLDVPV
Procedure: as §1
as §2, with “Immunobloting with an anti-ErbB receptor or anti-p42/44 MAP kinase antibodies was also used to normalise for protein loading.” left out

[8] = test system: sarcomeric myosin heavy chains; assay: Sarcomeric myosin heavy chain and sarcomeric actin expression in embryonic mouse cardiac muscle cells (immunoblot); type: cell-based; details: rhNRGβ2-stimulated
Procedure: FIGS. 6A-6B. Effects of NRG on cardiac sarcomere assembly and myosin heavy chains expression. FIG. 6A. E12.5 mouse cardiac muscle cells were cultured in serum-free medium (control) or stimulated with 10^−10 or 10^−8M rhNRGβ2 (NRG) for 48 hrs. Cells were then stained with phalloidin (left panels) or evaluated for anti-α-actinin immunoflorescency (right panels). FIG. 6B. Sarcomeric myosin heavy chain α-actin expression rhNRGβ2-stimulated embryonic mouse cardiac muscle cells were evaluated by immunoblot analysis using an anti-sarcomeric myosin heavy chain antibody (MF20) or an anti-α-actinin antibody. The same amount of whole cell extracts (20 μg proteins) was loaded into each lane for SDS-PAGE fractionation.
as §1

[9] = test system: p42/p44 MAP kinases; assay: MAP kinase catalytic activity in extracts of treated cardiomyocytes (p42/44 MAP kinase enzyme assay kit); type: cell-based, mouse
Procedure: as §1
Embryonic myocardial cells were cultured in serum-free medium for at least 24 hrs and then stimulated with rhNRGβ2 or IGF-I for various times. Stimulation was terminated by washing cells rapidly with cold PBS. […] MAP-kinase (p42/p44) activity was measured using a p42/44 MAP kinase enzyme assay kit (RPN84; Amersham, Bucks, U.K.) according to the manufacturer's instructions.
as §4, with “Data for DNA synthesis and MAP kinase activity are presented as the mean±S.E of five replicate samples.” left out

[10] = test system: MCF-7 breast cancer cell ErbB receptors; assay: Stimulation of MCF-7 breast cancer cell ErbB receptors (activity check of purified protein); type: cell-based; details: ligand 10^−12M to 10^−8M, MCF-7 cells
Description: A cDNA encoding the EGF-like domain of human NRGβ2 isoform (rhNRGβ2, residues 177-237, was inserted into the pFLAG1 expression vector (IBI) (a gift from Dr. Rodney J. Fiddes, Co-operative Research Centre for Biopharmaceutical Research, Australia). rhNRGβ2 with a FLAG-peptide attached at its N-terminus, was expressed in the periplasmic space of E. coli DH5α, and purified by affinity chromatography using anti-FLAG M1 monoclonal antibody according to the manufacturer's instructions. The purity of rhNRGβ2 was more than 90% as evidenced by SDS-PAGE separation and Coomassie Blue staining of purified protein samples. The concentration of purified proteins was determined using a Bio-Rad protein assay kit. Activity of the purified proteins was assayed by stimulation of MCF-7 breast cancer cell ErbB receptors with various ligand doses.

## COc1cccc(-c2cc(=O)c3ccccc3o2)c1N [PD98059, reference compound]
[1]; PD98059 added 30 mins before, cells stimulated 5 min
  effect on NRG-induced increase in p42/44 MAP kinase phosphorylation: blocked
[2]; PD98059 50 μM, presence or absence of serum
  effect on p21^CIP1 expression induced by 10^−8M rhNRGβ2: blocked the increase in p21^CIP1 expression
[3]; PD98059
  sensitivity of rhNRGβ2 effects on cardiomyocytes to MEK1 inhibition: sensitive to MEK1 inhibition

## CNC[C@H](O)c1cccc(O)c1 [PE, phenylephrine]
[4]
  sarcomeric and cytoskeleton structures, cell-cell adhesions: not found
[5]; non-exposed cells 581 μm^2
  surface area/cell of fully hypertrophied cells: 1811 μm^2
[5]
  hypertrophy score (maximal increase in cell size): 7

## CC[C@H](C)[C@H](NC(=O)[C@H](CC(=O)O)NC(=O)[C@H](CC(C)C)NC(=O)[C@H](Cc1c[nH]cn1)NC(=O)[C@@H]1CSSC[C@H](N)C(=O)N[C@@H](CO)C(=O)N[C@H]2CSSC[C@H](NC(=O)[C@H](CCC(=O)O)NC(=O)[C@H](CCCCN)NC(=O)[C@H](CC(=O)O)NC(=O)[C@H](CCSC)NC(=O)[C@H](CC(C)C)NC(=O)[C@H](CO)NC(=O)[C@H](CO)NC2=O)C(=O)N[C@@H](C(C)C)C(=O)N[C@@H](Cc2ccc(O)cc2)C(=O)N[C@@H](Cc2ccccc2)C(=O)N1)C(=O)N[C@H](C(=O)N[C@@H](Cc1c[nH]c2ccccc12)C(=O)O)[C@@H](C)CC [endothelin]
[5]
  hypertrophy score (maximal increase in cell size): ~5

## IGF-I: recombinant human insulin-like growth factor I, commercially obtained (Boehringer)
[1]; IGF-I low (10^−9M) and high (10^−8M or 10^−7M) concentrations
  MAP kinase phosphorylation time course: transient
[2]; IGF-I 10^−10M or 10^−8M
  p21^CIP1 expression: did not stimulate p21^CP1 expression
[4]
  sarcomeric and cytoskeleton structures, cell-cell adhesions: not found
[6]; concentrations ranging from 10^−11M to 10^−7M
  DNA synthesis response: only a proliferative response

B1: rhNRGβ2: EGF-like domain of human NRGβ2 isoform, residues 177-237 (SEQ ID NO: 2), FLAG-peptide at N-terminus, expressed in E. coli DH5α (protein, listed as Homo sapiens)
chain: {FLAG}-SHLVKCAEKEKTFCVNGGECFMVKDLSNPSRYLCKCPNEFTGDRCQNYVMASFYKAEELYQ
modifications: also: recombinant protein expressed in E. coli
[7]; 10^−8M compared with 10^−10M, cell lysates
  phosphorylation of 180-185 kDa proteins corresponding to ErbB2/ErbB4 receptors: a higher level of phosphorylated 180-185 kDa proteins
[7]; 5 min stimulation, 10^−10M or 10^−8M
  phosphorylation of immunoprecipitated ErbB2 and ErbB4: dependent on rhNRβ2 concentrations
[1]; 10^−8M (higher dose)
  duration of p42/p44 MAP kinase phosphorylation: at least 21 hours
[1]; 10^−10M (lower ligand concentration), fell to basal level in less than three hours
  MAP kinase activation (phosphorylation) time course: only transient activation
[1]; combination of IGF-I (10^−9M) and rhNRGβ2 (10^−8M)
  MAP kinase phosphorylation time course: sustained MAP kinase phosphorylation
[8]; MF20 immunoblot
  expression of sarcomeric myosin heavy chains: enhanced expression of sarcomeric myosin heavy chains
[8]; immunoblot
  sarcomeric actin expression: remained unchanged
[2]; 10^−8M
  duration of enhanced p21^CIP1 expression: at least 24 hours
[2]; 10^−8M (higher concentration), serum-free or 5% FBS, 24 hrs
  p21^CIP1 expression: increase in p21^CIP1 expression; also recorded: enhanced
[4]; 10^−8M concentration
  improvement of sarcomeres and cell-cell adhesions: maximal effect
[4]; rhNRGβ2 mixed with IGF-1 or PE
  cell structures when mixed with either IGF-1 or PE: improved the cell structures
[4]
  sarcomeric and cytoskeleton structures, cell-cell adhesions: dramatically improved sarcomeric and cytoskeleton structures, as well as cell-cell adhesions
[4]; with PE
  MHC-α expression under PE stimulation: overrode the negative regulation of MHC-α expression
[9]; 10^−8M
  duration of MAP kinase catalytic activity: at least 21 hours
[9]; 10^−10M
  MAP kinase catalytic activity time course: only transient
[3]; 10^−8M
  sarcomeric actin reorganisation and contractile unit assembly: stimulated both sarcomeric actin reorganisation (phalloidin staining) and cardiac contractile unit assembly
[3]; 10^−10M
  sarcomeric actin reorganisation and contractile unit assembly: much less evident
[6]; 10^−8M NRG
  effect on IGF-I (10^−9M)-stimulated DNA synthesis: significantly blocked the IGF-I response
[6]; 10^−10M NRG
  effect on IGF-I (10^−9M)-stimulated DNA synthesis: little effect
[6]; all concentrations except 10^−7M, P<0.001, 20 hr
  DNA synthesis response versus control (vehicle): significantly greater than control
[6]; ligand concentrations >10^−10M
  DNA synthesis: decreased
[6]; rhNRGβ2 at 10^−10, 20 hr treatment, embryonic mouse cardiomyocytes (E11.5-12.5)
  increase in DNA synthesis: approximately 2 fold
[10]
  ErbB receptor phosphorylation: increased ErbB receptor phosphorylation with increasing ligand concentration
